Measured values reported in a protein production outcome set (Wang et al. 2014).

Assay: label from the status in PepcDB records

In the case of “MRKLLSVIVSLMTAMAFAQQPVELPLWPDGAPNSNGLTGGEKEVSPHRLSNVTAPTITVYRAPQPNGMAVIMCPGGGYSRLAMDHEGHDMASWFCGQGITYVVLKYRMPNGHCEVPLSDAERAIRIVREHAGEWNIHPRKIGIMGASAGGHLASTLATHYSAASRPDFQILLYPVVTMTQSTHGGSRKELLGGNPTAEQEVLFSNELQVTSDTPQAFIVLSSDDGAVPPSNGVNYYLALQKNNVPASLHVYPTGGHGWGFRDNFKYKQQWTQELEKWLREGVVFPKETAPMLRIGKTYLGTKYVANTLDQGTEEKLVILPQTVDCLTFVEYTLAQAMGSSFADNLQKIRYRDGVIDGYTSRLHYTSDWIENGVRQGFLEDVTAQNSTQTTKLSLSYMSTHPQKYRQLADSPENVKRMAEHEKALSGKKVHWLPKGKLPDAGLPWIMDGDIIAITTNLPGLDVAHVGMAEYINGKLHLLHASSTLGKVVVSEEPLSQMLRNNKSWSGIRVVRMSHP”, the protein production is reported as “failed”.

In the case of “MAGEDSFERIALEWHARHMANKSESHATKTLERLRKDVFPWIGNRPVREITAPELLSVLRRIESRGAIELCHVTKRICGQVMRYAIATGRAERDPAADLKGALQPVKARHLEHHHHHH”, the protein production is reported as “failed”.

For “MLKQEKIYLVEDDTTIVNLLKNHLGQHYQVKSVDNFRAILQEVKEFKPDLILMDITLPYFNGFYWTTEIRKSMTMPIIFISSADEEMNAVMAMNMGGDDFLSKPFSLPILDAKIAAFLRRANEFTKQGHQIEEFELTLDGVFSNLERQETIQLTPTETKILSLLIDYKGEVVTKEALLNRLWEGEEFIDQNTLSVNMTRLRKKVLSVSFDKIHTVRGVGYLIK”, the protein production was “failed”.

With “MTSQGRAAMVRRMHDPQQPIRWRDLDLDPTHWVREILRVLGLALSRLWGRDVMLYVGGVSFFALLAVFPGLAILIGLYSLFLTPETAAWQAVKLAELIPSGARSIVQDELSRLAHAPGQTISLQSGVVLIVGAYAAHRGFKALLAGLSFIHDEENQRGFLGFNLMALLVLMAAFGLLFIMSGIFLTLRLLGTALELRPLAGVSWIQSEWTWASFGIVVGMSLVYRYAMSRQIVGWRASIAGGVAAAALCVFMSWASAFYVEKVVHLGATYGSVSAVIIFLIWLSWSVNAIFFGGALATEVEIALDERPRALLEGPRPIALKAPSESES” the protein production was “failed”.

For “MGHHHHHHSHAAAMANNLQKGSAGPMRLYVGSLHFNITEDMLRGIFEPFGRIESIQLMMDSETGRSKGYGFITFSDSECAKKALEQLNGFELAGRPMKVGHVTERTD”, the protein production was “not failed”.

For “MALHPTDYFRKERIFVDRETCIDNFRRFIQNSNNQDYNALFYYGIAGIGKSKLQHKLQNILNTEYPEMLWVSMDLENDTHRNVSTFLIALRNKIQKKCNVRFYKFNLAHAIFSKKSRPDIPLNKETYPMLKEDGFFYEILNSLNETAFGPFISIPVKRIVDIINQAPGNVRRHFGELPIDINKLESMEAHEIEKKLPGIFAADFTGSLGTNSRACIFIDTYEAIWKGWRGIGSFSEKDKWIRKCLIPNMPGVSWVICGRKQIKSLWIKDEQDWEMCMKEYPIEDLPEEYSEQFLKEYIEEEDIRSVIVKASEGVPCYLNLSVDTYEQVSRIKKPEVKDFPNTKIEVFEKFVKYLDNNEKRTLYILSAPNSWDRNLFKKLINEFNPTYSIYEFSDLIKYSFVKKITDEKFSLHQLMRKNLQEYQDPTYRKDVHLFLHEYYSNKIKDVDVRSITQEHEISLIEAYYHAREVLKFEDLGGWIAKYTEPFNEAGYWKTIYPMIEDFAEILKEKFGPDNIYYGIFVRKLAFLNEDRGKYNEAIFYYQQVLKIFEKNMGKKILENNDLVVDDHSIAMVTNDLANCYLSIGEYEKALTLQQNSLKTVQNKVNKDPLYIALLQQNIALTYQYLGQYNKAMELCQEALTVREACLGEEDLEVAKTAENLAVIHQQLGNYKEAFALAKRALNIREKKLGSKHPLVATNLSSLGVLCIIMGNLEEGLKYNQRAVKIAEERFEGDHISVAETLSNLGATYQYMLRYDDALEAYQRALNITEHSLGLENPKLVNILNNIAETYRKMENYEKALEFYQRALDIARNHLGKEHPTIALIMNNLGRLYMNTKEFDKAHTICQQALDIRGKTLGTDHVDFAITSLDLGIIYGCVGRRDYALPLLEHSLRIFEQKLGSDHIYTKNAKLVVDTLKESR”, the protein production was “failed”.

With “MISTTTVSDLYITFGLIGVFLAGMIAVLYATNRKSDSFSDYAVGGRSYGPWFIAMCYTNSWWPGATFTAFFALSVGGALGFYGMVYATLGVTAMYLMANRAWTWGKRFNLTTQPDLLGMRFNSPVVKRIASIIGIISVFPWVVMGIQALATLFQFASFGRWGVTTCLLVGVAVILIRQYWTVSMGMRGLIMTDMYQGLIAYVLCAALCIFLMFGAQASFSNLSQLPASMLVIPGGTGSTYGPMYMFSLIFTGVIGSMCWPMSFQRIYTASGVRSVKKGTLLTILLVGGFYGILMLFAAAISQDPNVAAHPQHGWFLSLFDIGGPWLLAVAIMIVLAASIGHVDGCVQVCGTQFANDLATWNTPRSDREKTILAKAGMVVFIAAASLLAYLTFDYARLQLLAQISYQGIIQLAVPLFFGVFSRRGNKQGAIVGMLVGIVIAIVLTTIYPDDIPGLGSLTSGIVGLIFNAGIFVACAVAIKPSAEEVRRVDELFAMAAPQRHPAGVAPVMS” the protein production was “failed”.

In the case of “MDSDFHVKPEIRILGIDDSALLNEKVMIVGTVFRGGDWIDGVLRSEITRDGLDATEVMVTMIKNSRHHNQLRVIMLDGITYGGFNVVDIEELYRETGLPVIVIMRSCPDFEKIRSALKHFSDGEERWKIIKKAGKIEKLITGRNGTPIYIQKAGIGAKNVEKIIRLTSIRSSIPEPLRVAHLIATGITLGESRGKA”, the protein production is reported as “failed”.

In the case of “MLQCGAKNVNPLERFVSSLPVAAVLPELLAALDGASQVLLSAPTGAGKSTWLPLQLLAHPGINGKIILLEPRRLAARNVAQRLAELLNEKPGDTVGYRMRAQNCVGPNTRLEVITEGVLTRMIQRDPELSGVGLVILDEFHERSLQADLALALLLDVQQGLRDDLKLLIMSA”, the protein production is reported as “failed”.

For “MPHLFYGTAQNGEVIFDEREAHHMRVVRLKEGDVIEATDGNGFSYTCILKSLKKKTAAAKIVKVEEKEKEPTEKLSVVVPIGRWERTRFLIEKCVELGVDEIFFHKFERSQHEISLDKAKIVVREAAKQCKRYLFPKVSFLEKLEFSGNVITLDLDASQNLLDANLEGSITVVVGPEGGFSEKERELLRSSTTIVSLGKKILRFETAAILTVGYIALKKQKI”, the protein production was “not failed”.

With “MVRVDQNLFNEVMYLLDELSQDITVPKNVRKVAQDSKAKLSQENESLDLRCATVLSMLDEMANDPNVPAHGRTDLYTIISKLEALSKS” the protein production was “not failed”.

For “LENDRTTFRIRNLDSGEIIWSGMGAVYPVYSPSFDHAADAFAFAFSSPADPPEIHLLRDAETKSSINSHLDGVSPYPAEIVEWKAKDGEDLYGILRLIDPKNPLIVYIHGGPTSFSYASFLDRTSIYLGYGFNVFAPNYRGSVGKGRRYAELNVGDLGGKDFDDVISGIEFLKNTGKIATDR”, the protein production was “failed”.

For “MSELARLRQKVSDGLGLATPAADPADKTTRLANEEHASDVRAVALYVAISLSVGAFAAALIALAVPYAVTVVLACFFGAVLMGALFYALFGKSFPLPGTLPADYSDVRLRQTQNRSLIAEMQESMGDIVVIRNMNRRIVEANRVFREMTGCTSPEGLSCEEIGIAFRPGDRVHAYDVEIATPFGQRIFSWHDVVTRDLASSRLMISSIARDVTEERLALAEREDARLRAEKADAEKARLLATVSHEIRLPLSGMLGMNHLLSQTKLNQEQRNYLDGMKQSGQSLVQLVEDLLDYSTMEAGRFRLNPRAENLRRLIESIVEMLAHRAHEKGIEIASFVTPDVPDYLDFDPARLRQVLFNLIGNAVKFTQVGGVVIRARMVDGELQITVEDTGPGMSEAEQARIFGEFEQAGPLSQRSAGTGLGLAISARIVREFGGNLTVSSRRGEGSTFKLVFRPGRAPAEMPDSGRSHCLQHTNVLLIAPEGVAAAVTMEAIEAFGGKCILIHQPEDLDRLRNEPVSRTADLTDIIVDLRISALFRDALRDWPQQTIRRTLLVSPEERASTTHASFDAWLIRPLREKSLIDVLCGRLRGIERRDAINDNHPDVGFSSRVVERASGVEILVAEDDAVNARIIRAVLEKSGYIVRAVDNFQALQQSVASGASRLPNLIVSDLNMPGGEGLDVLPDLLGKLKDERNIPVIILSGDAGAGTAEILLKAGAGAVLAKPADPRRLVEEIRRLLEAKRVLSS”, the protein production was “failed”.

For “MSKAKAPINTDELKQKYGRVYEIRIEGLEYENGEEAEFVFYFTRPKVSDISRFTKELNSKPDMAMKNLTFSCIVPEQEEELRQAAEEFPGLTFNTASRLMEIVGASAATSLKKL”, the protein production was “not failed”.

In the case of “MGTVSKALTLLTYFNHGRLEIGLSDLTRLSGMNKATVYRLMSELQEAGFVEQVEGARSYRLGPQVLRLAALREASVPILSASRRVLRELSEDTGETTHLSLLQGEQLASLSHAYSSRNATKVMMEDAEVLTFHGTASGLAVLAYSEPSFVDAVLAAPLTARTPQTQTDPAAIRAEIAEVRRTGLAQSIGGFEAEVHSHAVPIFGPDRAVLGALAVAAPTSRMTPDQKRTIPPALRAAGLSLTERIGGACPPEFPTDIAA”, the protein production is reported as “not failed”.

For “MENLGDRLEVVAELSLAPGNITLTPDGRLFLSLHQFYQPEMQVAELTQDGLIPFPPQSGNAIITFDTVLGIKSDGNGIVWMLDNGNQSKSVPKLVAWDTLNNQLSRVIYLPPPITLSNSFVNDLAVDLIHNFVYISDPAPDDKAALIRVDLQTGLAARVLQGYPGIAPEDIDLVIDGVPVQIGQPDGTVIRPHLGVNGIVLDAENEWLYLSPMHSTSMYRIKSADLSNLQLTDAELGSKIERYSEKPICDGISIDKDHNIYVGDLAHSAIGVITSADRAYKLLVTDEKLSWTDSFNFGSDGYLYFDCNQLHHSAPLNAGENISAPPYYIFRLKPLAAGIVGR”, the protein production was “not failed”.

With “MKQGKISDYVNPVPIKITDDKAIFKVEKLVPTPYIERVLPLEYAPLYEQLAELDTAIPKIVCLEKSDRLTVIEEYIDSPRLDQYLETHKLTSAQIHDLICQLLDVLAVLHQQIPPIIHRDIKPENIFYDGQKLILADFDIARNMQEDADRDTRILGSVGYAAPEQFGFSQSGPASDFYAVGVLMNVLYTGYLPSVRLYKGPEREIIEKATHINSQKRYQSAQEFKDAITGLGRSSWLLPGFRSHQPARMLTAGCGYLLMLFSSFSMDAKSDSAADSFLLRLSFFMVLFLIVLFACNYRNIKSICLFHSSKSKFTRACGIIISYLLVATVLTTALAALSVAISSFGH” the protein production was “failed”.

With “ERNKTLYWGGALWSPPSNWNPFTPWNAVAGTIGLVYEPLFLYDPLNDKFEPWLAEKGEWVSNNEYVLTLRKGLRWQDGVPLTADDVVFTFEIAKKYTGISYSPVWNWLGRIERVDERTLKFVFSDPRYQEWKQMLINTPIVPKHIWENKTEEEVLQAANENPVGSGPYYVESWADDRCVFKKNGNWWGIRELGYDPKPERIVELRVLSNNVAVGMLMKGELDWSNFFLPGVPVLKKAYGIVTWYENAPYMLPANTAGIYINVNKYPLSIPEFRRAMAYAINPEKIVTRAYENMVTAANPAGILPLPGYMKYYPKEVVDKYGFKYDPEMAKKILDELGFKDVNKDGFREDPNGKPFKLTIECPYGWTDWMVSIQSIAEDLVKVGINVEPKYPDYSKYADDLYGGKFDLILNNFTTGVSATIWSYFNGVFYPDAVESEYSYSGNFGKYANPEVETLLDELNRSNDDAKIKEVVAKLSEILLKDLPFIPLWYNGAWFQASEAVWTNWPTEKNPYAVPIGWNGWWQLTGIKTLFGIEAK” the protein production was “not failed”.
